Reference: patent US20260242735A1

Legend:
human CD33 Y129A (human) [1] = target: human CD33 Y129A (human) (UniProt P20138); experiment: flow cytometry on HEK293-T, alanine scan
human CD33 C101A (human) = human CD33 C101A (human) (UniProt P20138); experiment: flow cytometry on HEK293-T, alanine scan
human CD33 M120A (human) = human CD33 M120A (human) (UniProt P20138); experiment: flow cytometry on HEK293-T, alanine scan
[2] = target: human CD33 variant Y129S (human) (UniProt P20138); experiment: flow cytometry, IgG on cells expressing the mutant
human CD33 variant Y129S (human), sequence (P20138 18-364 Y129S limits assumed): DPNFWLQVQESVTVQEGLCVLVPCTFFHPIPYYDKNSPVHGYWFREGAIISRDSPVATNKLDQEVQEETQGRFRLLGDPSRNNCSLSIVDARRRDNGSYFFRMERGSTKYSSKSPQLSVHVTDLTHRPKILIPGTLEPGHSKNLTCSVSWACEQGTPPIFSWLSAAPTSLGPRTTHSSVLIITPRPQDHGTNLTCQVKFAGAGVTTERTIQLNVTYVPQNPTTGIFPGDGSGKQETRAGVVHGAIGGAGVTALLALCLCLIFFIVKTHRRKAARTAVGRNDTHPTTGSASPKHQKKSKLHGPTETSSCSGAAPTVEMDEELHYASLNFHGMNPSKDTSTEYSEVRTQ

human CD33 F44A (human) [3] = target: human CD33 F44A (human) (UniProt P20138); experiment: alanine scan, flow cytometry
human CD33 F44A (human), sequence (P20138 18-364 F44A limits assumed): as the sequence (P20138 18-364 Y129S limits assumed) above, with F27A, S112Y counted along it

human CD33 Q24A (human) = human CD33 Q24A (human) (UniProt P20138); experiment: flow cytometry, alanine scan
human CD33 Q24A (human), sequence (P20138 18-364 Q24A limits assumed): as the sequence (P20138 18-364 Y129S limits assumed) above, with Q7A, S112Y counted along it

human CD33 Q26A (human) = human CD33 Q26A (human) (UniProt P20138); experiment: flow cytometry, alanine scan
human CD33 Q26A (human), sequence (P20138 18-364 Q26A limits assumed): as the sequence (P20138 18-364 Y129S limits assumed) above, with Q9A, S112Y counted along it

human CD33 F44A (human) [4] = target: human CD33 F44A (human) (UniProt P20138); experiment: flow cytometry, alanine scan
human CD33 V25A (human) = human CD33 V25A (human) (UniProt P20138); experiment: flow cytometry, alanine scan
human CD33 V25A (human), sequence (P20138 18-364 V25A limits assumed): as the sequence (P20138 18-364 Y129S limits assumed) above, with V8A, S112Y counted along it

human CD33 L134R (human) = human CD33 L134R (human) (UniProt P20138); experiment: flow cytometry, transfected cells, IgG
human CD33 L134R (human), sequence (P20138 18-364 L134R limits assumed): as the sequence (P20138 18-364 Y129S limits assumed) above, with S112Y, L117R counted along it

human CD33 K52F (human) = human CD33 K52F (human) (UniProt P20138); experiment: flow cytometry, transfected cells, IgG
human CD33 K52F (human), sequence (P20138 18-364 K52F limits assumed): as the sequence (P20138 18-364 Y129S limits assumed) above, with K35F, S112Y counted along it

human CD33 C212A (human) [5] = target: human CD33 C212A (human) (UniProt P20138); experiment: alanine scan, flow cytometry
human CD33 C212A (human), sequence (P20138 18-364 C212A limits assumed): as the sequence (P20138 18-364 Y129S limits assumed) above, with S112Y, C195A counted along it

human CD33 Y129A (human) [6] = target: human CD33 Y129A (human) (UniProt P20138); experiment: alanine scan, flow cytometry, HEK293-T
human CD33 L134A (human) = human CD33 L134A (human) (UniProt P20138); experiment: alanine scan, flow cytometry, HEK293-T
human CD33 L134A (human), sequence (P20138 18-364 L134A limits assumed): as the sequence (P20138 18-364 Y129S limits assumed) above, with S112Y, L117A counted along it

human CD33 V138A (human) = human CD33 V138A (human) (UniProt P20138); experiment: flow cytometry on HEK293-T, alanine scan
human CD33 V138A (human), sequence (P20138 18-364 V138A limits assumed): as the sequence (P20138 18-364 Y129S limits assumed) above, with S112Y, V121A counted along it

[7] = target: human CD33 variant Y49S (human) (UniProt P20138); experiment: flow cytometry, IgG on cells expressing the mutant
human CD33 variant Y49S (human), sequence (P20138 18-364 Y49S limits assumed): as the sequence (P20138 18-364 Y129S limits assumed) above, with Y32S, S112Y counted along it

human CD33 V231A (human) = human CD33 V231A (human) (UniProt P20138); experiment: alanine scan, flow cytometry, HEK293-T
human CD33 V231A (human), sequence (P20138 18-364 V231A limits assumed): as the sequence (P20138 18-364 Y129S limits assumed) above, with S112Y, V214A counted along it

[8] = target: human CD33 extracellular region F21L (human) (UniProt P20138); experiment: BLI Octet, IgG captured on AHC, CD33 analyte
human CD33 extracellular region F21L (human), sequence (P20138 other isoform, or with tags, fused parts or gaps F21L F21L): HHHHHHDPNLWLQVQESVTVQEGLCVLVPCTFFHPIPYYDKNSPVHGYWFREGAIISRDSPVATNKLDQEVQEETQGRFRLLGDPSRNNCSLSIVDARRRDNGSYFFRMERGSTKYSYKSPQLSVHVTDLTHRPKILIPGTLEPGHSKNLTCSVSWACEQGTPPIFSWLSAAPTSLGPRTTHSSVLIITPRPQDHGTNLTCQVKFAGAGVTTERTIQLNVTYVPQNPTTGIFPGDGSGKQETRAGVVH

human CD33 C41A (human) = human CD33 C41A (human) (UniProt P20138); experiment: alanine scan, flow cytometry
human CD33 C41A (human), sequence (P20138 18-364 C41A limits assumed): as the sequence (P20138 18-364 Y129S limits assumed) above, with C24A, S112Y counted along it

human CD33 C212A (human) [9] = target: human CD33 C212A (human) (UniProt P20138); experiment: alanine scan, flow cytometry, HEK293-T

human CD33 Y129A (human), sequence (P20138 18-364 Y129A limits assumed): as the sequence (P20138 18-364 Y129S limits assumed) above, with S112A counted along it
human CD33 C101A (human), sequence (P20138 18-364 C101A limits assumed): as the sequence (P20138 18-364 Y129S limits assumed) above, with C84A, S112Y counted along it
human CD33 M120A (human), sequence (P20138 18-364 M120A limits assumed): as the sequence (P20138 18-364 Y129S limits assumed) above, with M103A, S112Y counted along it

B1: Refmab #3 (antibody, human IgG1, V domains shown)
VH: QVQLVQSGAEVKKPGSSVKVSCKASGYTFTDYNMHWVRQAPGQGLEWIGYIYPYNGGTGYNQKFKSKATITADESTNTAYMELSSLRSEDTAVYYCARGRPAMDYWGQGTLVTVSS
VL: DIQMTQSPSSLSASVGDRVTITCRASESVDNYGISFMNWFQQKPGKAPKLLIYAASNQGSGVPSRFSGSGSGTDFTLTISSLQPDDFATYYCQQSKEVPWTFGQGTKVEIK
- Mean % WT Binding (human CD33 Y129A (human) [1]): 15.6 % WT binding
- Mean % WT Binding (human CD33 C101A (human)): 13.6 % WT binding
- Mean % WT Binding (human CD33 M120A (human)): 15.7 % WT binding
- Mean % WT Binding [2]: 7.6 % of WT
- Mean % WT Binding (human CD33 F44A (human) [3]): 18.9 % WT

B2: Refmab #6 (antibody, human IgG1, V domains shown)
VH: QVQLQQPGAEVVKPGASVKMSCKASGYTFTSYYIHWIKQTPGQGLEWVGVIYPGNDDISYNQKFQGKATLTADKSSTTAYMQLSSLTSEDSAVYYCAREVRLRYFDVWGQGTTVTVSS
VL: EIVLTQSPGSLAVSPGERVTMSCKSSQSVFFSSSQKNYLAWYQQIPGQSPRLLIYWASTRESGVPDRFTGSGSGTDFTLTISSVQPEDLAIYYCHQYLSSRTFGQGTKLEIK
- Mean % WT Binding (human CD33 Q24A (human)): 18.1 % of WT
- Mean % WT Binding (human CD33 Q26A (human)): 76.1 % of WT
- Mean % WT Binding (human CD33 F44A (human) [4]): 14 % of WT
- Mean % WT Binding (human CD33 V25A (human)): 16.7 % of WT
- Mean % WT Binding (human CD33 L134R (human)): 1%
- Mean % WT Binding (human CD33 K52F (human)): 2.5%
- Mean % WT Binding (human CD33 C212A (human) [5]): 16.2 % WT binding
- Mean % WT Binding (human CD33 Y129A (human) [6]): 76.7 % WT binding
- Mean % WT Binding (human CD33 L134A (human)): 19.5 % WT binding

B3: Refmab #4 (antibody, human IgG1, V domains shown)
VH: QVQLVQSGAEVKKPGESVKVSCKASGYTFTNYGMNWVKQAPGQGLEWMGWINTYTGEPTYADKFQGRVTMTTDTSTSTAYMEIRNLGGDDTAVYYCARWSWSDGYYVYFDYWGQGTSVTVSS
VL: DIVMTQSPDSLTVSLGERTTINCKSSQSVLDSSTNKNSLAWYQQKPGQPPKLLLSWASTRESGIPDRFSGSGSGTDFTLTIDSPQPEDSATYYCQQSAHFPITFGQGTRLEIK
- Mean % WT Binding (human CD33 V138A (human)): 54.1 % WT binding
- Mean % WT Binding [7]: 9.8 % of WT
- Mean % WT Binding (human CD33 V231A (human)): 79.3%

B4: Refmab #5 (antibody, human IgG1, V domains shown)
VH: QVQLVQSGAEVKKPGASVKVSCKASGYTFTNYDINWVRQAPGQGLEWIGWIYPGDGSTKYNEKFKAKATLTADTSTSTAYMELRSLRSDDTAVYYCASGYEDAMDYWGQGTTVTVSS
VL: DIQMTQSPSSLSASVGDRVTINCKASQDINSYLSWFQQKPGKAPKTLIYRANRLVDGVPSRFSGSGSGQDYTLTISSLQPEDFATYYCLQYDEFPLTFGGGTKVEIK
- Mean % WT Binding (human CD33 L134R (human)): 5%
- Mean % WT Binding (human CD33 K52F (human)): 2.5%

B5: Refmab #1 (antibody, human IgG1, V domains shown)
VH: EVQLVQSGAEVKKPGSSVKVSCKASGYTITDSNIHWVRQAPGQSLEWIGYIYPYNGGTDYNQKFKNRATLTVDNPTNTAYMELSSLRSEDTAFYYCVNGNPWLAYWGQGTLVTVSS
VL: DIQLTQSPSTLSASVGDRVTITCRASESLDNYGIRFLTWFQQKPGKAPKLLMYAASNQGSGVPSRFSGSGSGTEFTLTISSLQPDDFATYYCQQTKEVPWSFGQGTKVEVK
- % WT binding [8]: 1.52%
- Mean % WT Binding (human CD33 C41A (human)): 14 % WT
- Mean % WT Binding (human CD33 C212A (human) [9]): 17.2%
